Data set [1] can be described thus: Hydroxyapatite-binding assay. The conditions noted are these: hydroxyapatite beads 1, 2.5, 10, 25 mg/mL in Tris/HCl-buffered saline 50 mM pH 7.4, ligand 19.5 µM, 1 h, room temperature, gamma counter, four samples; Figure 2. The method, then: Hydroxyapatite-binding assays were performed according to procedures described previously. Briefly, hydroxyapatite beads (Bio-Gel; Bio-Rad, Hercules, CA, USA) were suspended in Tris/HCl-buffered saline (50 mM, pH 7.4) at 1 mg/mL, 2.5 mg/mL, 10 mg/mL, and 25 mg/mL. For the solutions of [^67Ga]Ga-HBED-CC-(D-Glu)14, [^67Ga]Ga-HBED-CC-(DL-Glu)14, and [^67Ga]Ga-HBED-CC-(D-Glu-L-Glu)7, the ligand concentrations were adjusted to 19.5 µM by adding the corresponding HBED-CC conjugated Glu peptides. A solution of each [^67Ga]Ga-HBED-CC-(D-Glu)14, [^67Ga]Ga-HBED-CC-(DL-Glu)14, and [^67Ga]Ga-HBED-CC-(D-Glu-L-Glu)7 (200 µL each) was added to 200 μL of the hydroxyapatite suspension, and the samples were gently shaken for 1 h at room temperature. After centrifugation at 10,000× g for 5 min, the radioactivity of the supernatants was measured using an auto well gamma counter (ARC-7010B, ALOKA Co., Ltd., Tokyo, Japan). […] The ratios of binding were determined as follows:Hydroxyapatite binding (%) = (1 − [sample supernatant radioactivity]/[control supernatant radioactivity]) × 100

A further data set in a line: in vivo. The conditions noted are these: male, ddY, mouse, iv, 37 kBq/100 uL, total radioactivity. More on the design: species or system ddY mice. The method, then: Biodistribution experiments were performed after an intravenous administration of each tracer solution diluted in saline (37 kBq/100 μL) to 6-week-old male ddY mice (weight, 27–32 g, Japan SLC, Inc., Hamamatsu, Japan). Four mice were sacrificed at each time point for each compound at 10, 60, and 180 min post-injection. The tissues of interest were dissected and weighed. Complete left femurs were isolated as representative bone samples, radioactivity counts were determined using an auto well gamma counter (ARC-7010, ALOKA Co., Ltd.), and counts were corrected for the background radiation and physical decay that occurred during counting.

The conditions of data set [2]: hydroxyapatite beads; Figure 2; cited from earlier work. The method, then:
To determine the affinity of the compounds for hydroxyapatite, the hydroxyapatite-binding assay was performed. The hydroxyapatite-binding rates of [^67Ga]Ga-HBED-CC-(L-Glu)14, [^67Ga]Ga-HBED-CC-(D-Glu)14, [^67Ga]Ga-HBED-CC-(DL-Glu)14, and [^67Ga]Ga-HBED-CC-(D-Glu-L-Glu)7 are illustrated in Figure 2. The binding profiles of each tracer were similar.

Read-outs that look alike come from different tables or passages of the source.

For `O=C(O)CCc1ccc(O)c(CN(CCN(CC(=O)O)Cc2cc(CCC(=O)N[C@H](CCC(=O)O)C(=O)N[C@H](CCC(=O)O)C(=O)N[C@H](CCC(=O)O)C(=O)N[C@H](CCC(=O)O)C(=O)N[C@H](CCC(=O)O)C(=O)N[C@H](CCC(=O)O)C(=O)N[C@H](CCC(=O)O)C(=O)N[C@H](CCC(=O)O)C(=O)N[C@H](CCC(=O)O)C(=O)N[C@H](CCC(=O)O)C(=O)N[C@H](CCC(=O)O)C(=O)N[C@H](CCC(=O)O)C(=O)N[C@H](CCC(=O)O)C(=O)N[C@H](CCC(=O)O)C(=O)O)ccc2O)CC(=O)O)c1` [[67Ga]Ga-HBED-CC-(D-Glu)14, metal not drawn], the “Hydroxyapatite binding profile (in words)” value in data set [1] is “similar”. For the same compound, in the data set “in vivo”, the tissue uptake dose at 10 min worked out at 0.57 %ID, the tissue uptake dose at 1 h worked out at 0.51 %ID and the tissue uptake dose at 3 h was 0.76 %ID.
Regarding `O=C(O)CCc1ccc(O)c(CN(CCN(CC(=O)O)Cc2cc(CCC(=O)N[C@H](CCC(=O)O)C(=O)N[C@@H](CCC(=O)O)C(=O)N[C@H](CCC(=O)O)C(=O)N[C@@H](CCC(=O)O)C(=O)N[C@H](CCC(=O)O)C(=O)N[C@@H](CCC(=O)O)C(=O)N[C@H](CCC(=O)O)C(=O)N[C@@H](CCC(=O)O)C(=O)N[C@H](CCC(=O)O)C(=O)N[C@@H](CCC(=O)O)C(=O)N[C@H](CCC(=O)O)C(=O)N[C@@H](CCC(=O)O)C(=O)N[C@H](CCC(=O)O)C(=O)N[C@@H](CCC(=O)O)C(=O)O)ccc2O)CC(=O)O)c1` [[67Ga]Ga-HBED-CC-(D-Glu-L-Glu)7, metal not drawn], the “Hydroxyapatite binding profile (in words)” value in data set [1] is listed as “similar”. Also, in the data set “in vivo”, the tissue uptake dose at 10 min is 0.32 %ID, the tissue uptake dose at 1 h is 0.84 %ID and the tissue uptake dose at 3 h stood at 0.48 %ID.
In the case of “[^67Ga]Ga-N,N′-bis-[2-hydroxy-5-(carboxyethyl)benzyl]ethylenediamine-N,N′-diacetic acid-conjugated (L-Glu)14 [[^67Ga]Ga-HBED-CC-(L-Glu)14]”, the “Hydroxyapatite binding profile (in words)” value in data set [2] is “similar”.

Source of the values: paper PMC11396517, “Differences in the Renal Accumulation of Radiogallium-Labeled (Glu)14 Peptides Containing Different Optical Isomers of Glutamic Acid” (Molecules, 2024).
